Assay results reported in publication PMC7191749, “Low phosphatase activity of LiaS and strong LiaR-DNA affinity explain the unusual LiaS to LiaR in vivo stoichiometry” (BMC Microbiology, 2020).

Experiments:
[1] = biological target: T1, LiaS (GST-LiaS, liaS^126) (Bacillus subtilis, UniProt O32198); assay: autophosphorylation, […] incorporation by SDS-PAGE phosphorimaging, kobs against ATP; type: biochemical; settings: labelled compound; pH 7.4, 50 mM KCl, 5 mM MgCl2, 10 mM CaCl2, 25 °C; 5 μM LiaS; 10-250 μM ATP; apparent dissociation constant from kinetics; read-out: KS
T1 construct: cytoplasmic domain, residues 126-360 (TM and HAMP removed), fused to C-terminus of GST; pGEX-4T-1, E. coli BL21(DE3); calculated mass 52,431 (printed as kD)
T1 sequence (O32198 126-360): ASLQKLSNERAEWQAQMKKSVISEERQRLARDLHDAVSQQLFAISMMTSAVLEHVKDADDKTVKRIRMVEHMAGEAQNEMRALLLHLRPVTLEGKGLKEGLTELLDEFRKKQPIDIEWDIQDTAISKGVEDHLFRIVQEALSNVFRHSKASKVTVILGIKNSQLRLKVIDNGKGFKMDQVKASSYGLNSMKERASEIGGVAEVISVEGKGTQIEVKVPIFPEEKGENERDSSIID

[2] = test system: LiaRC (effector domain) (Bacillus subtilis 168); assay: EMSA; settings: 5 mM Mg2+; EMSA: 10 mM Tris pH 7.5, 50 mM KCl, 1 mM DTT, 5 mM MgCl2, 10 ng herring sperm DNA, 2.5% glycerol, 25 C, 30 min, 9% native PAGE; footprinting as in ref 35
[3] = test system: LiaR (Bacillus subtilis 168); assay: EMSA; settings: 5 mM Mg2+; unphosphorylated; EMSA: 10 mM Tris pH 7.5, 50 mM KCl, 1 mM DTT, 5 mM MgCl2, 10 ng herring sperm DNA, 2.5% glycerol, 25 C, 30 min, 9% native PAGE; footprinting as in ref 35
[4] = biological target: T2, LiaRC (effector domain) (Bacillus subtilis 168) (UniProt O32197); assay: EMSA; settings: EMSA: 10 mM Tris pH 7.5, 50 mM KCl, 1 mM DTT, 5 mM MgCl2, 10 ng herring sperm DNA, 2.5% glycerol, 25 C, 30 min, 9% native PAGE; footprinting as in ref 35
T2 sequence: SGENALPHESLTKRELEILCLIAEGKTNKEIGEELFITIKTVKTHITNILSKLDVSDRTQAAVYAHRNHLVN

[5] = biological target: T3, LiaR (Bacillus subtilis 168) (UniProt O32197); assay: EMSA; settings: EMSA: 10 mM Tris pH 7.5, 50 mM KCl, 1 mM DTT, 5 mM MgCl2, 10 ng herring sperm DNA, 2.5% glycerol, 25 C, 30 min, 9% native PAGE; footprinting as in ref 35
T3 sequence: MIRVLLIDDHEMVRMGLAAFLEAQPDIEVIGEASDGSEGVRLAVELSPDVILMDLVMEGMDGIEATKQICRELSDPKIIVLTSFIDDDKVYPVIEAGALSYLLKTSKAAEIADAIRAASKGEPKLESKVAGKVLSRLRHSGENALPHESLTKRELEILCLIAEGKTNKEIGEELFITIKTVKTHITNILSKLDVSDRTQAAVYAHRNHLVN

[6] = biological target: T3, LiaR (Bacillus subtilis 168); assay: DNase I footprinting; settings: EMSA: 10 mM Tris pH 7.5, 50 mM KCl, 1 mM DTT, 5 mM MgCl2, 10 ng herring sperm DNA, 2.5% glycerol, 25 C, 30 min, 9% native PAGE; footprinting as in ref 35
[7] = biological target: T4, VraR (Staphylococcus aureus) (UniProt Q7A2Q1); assay: DNase I footprinting; settings: EMSA: 10 mM Tris pH 7.5, 50 mM KCl, 1 mM DTT, 5 mM MgCl2, 10 ng herring sperm DNA, 2.5% glycerol, 25 C, 30 min, 9% native PAGE; footprinting as in ref 35
T4 sequence: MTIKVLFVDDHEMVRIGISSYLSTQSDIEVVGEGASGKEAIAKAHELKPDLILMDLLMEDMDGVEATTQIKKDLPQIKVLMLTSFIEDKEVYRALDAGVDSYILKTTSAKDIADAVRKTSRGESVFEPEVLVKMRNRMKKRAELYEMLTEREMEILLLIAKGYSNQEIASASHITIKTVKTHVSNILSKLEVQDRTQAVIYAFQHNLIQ

LiaR^N (RD of LiaR) = biological target: T5, LiaR^N (RD of LiaR) (Bacillus subtilis, UniProt O32197); assay: phosphorylation by acetyl phosphate; type: biochemical; settings: covalent phosphorylation of the stand-alone receiver domain
T5 construct: receiver domain, tagless, Gly-131 codon changed to stop (residues 1-130); pET26b, E. coli BL21(DE3); calculated mass 14,029 (printed as kD)

native-PAGE = biological target: the molecule itself; assay: native-PAGE

## Nc1ncnc2c1ncn2[C@@H]1O[C@H](COP(=O)(O)OP(=O)(O)OP(=O)(O)O)[C@@H](O)[C@H]1O [ATP]
[1]
  Kd: 7 ± 1 µM

## PliaI (-162 to +31)
[2]
  Kd: 20 µM
[3]
  Kd: 0.2 µM

## TTCATGCAGATCCTCCTTTCGTTTTCCTTGTCTTCATCTTATACAAGTTGGAAGATATGCAAAACGAATCAGAGATTGATTTTTATATAAGACCGGAGTCGTATCTCGCACCGGACCCATTGGCACAAAAAAACGCCATGCACGAGGCATGGCGTTTTAAAACCCTTTACAGATGAACACTTGCTTCCCTTTC (double strand) [PliaI (-162 to +31)]
[4]
  Kd: 20 µM
[5]
  Kd: 0.2 µM
[6]
  binding: binds
[7]
  binding: binds

## CC(=O)OP(=O)(O)O [acetyl phosphate]
LiaR^N (RD of LiaR)
  phosphorylation by acetyl phosphate: RD of LiaR also underwent phosphorylation by acetyl phosphate

B1: LiaR 1-211 (protein)
chain: T3 sequence
native-PAGE
  Kd: > 20 µM
